Here are results for 2 substances from publication PMC7381364.

Assay [1] addresses IL-18BP (Homo sapiens) (UniProt O95998). The settings on record: cited from earlier work.
In assay [2] the target is mouse IL-18 binding protein (mouse) (UniProt Q9Z0M9). Briefly: SPR.
Chain of mouse IL-18 binding protein (mouse) (Q9Z0M9 31-193): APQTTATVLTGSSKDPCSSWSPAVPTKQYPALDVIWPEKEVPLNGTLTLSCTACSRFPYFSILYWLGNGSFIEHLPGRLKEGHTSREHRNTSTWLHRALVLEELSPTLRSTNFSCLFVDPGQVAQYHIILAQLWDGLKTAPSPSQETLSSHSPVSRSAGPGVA

Chain of IL-18BP (Homo sapiens) (O95998 31-194): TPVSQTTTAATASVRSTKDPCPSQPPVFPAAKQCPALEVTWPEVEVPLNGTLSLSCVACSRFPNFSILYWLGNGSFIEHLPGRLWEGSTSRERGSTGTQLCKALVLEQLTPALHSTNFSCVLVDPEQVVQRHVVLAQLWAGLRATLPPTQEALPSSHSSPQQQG
Chain of IL-18 (Q14116 37-193): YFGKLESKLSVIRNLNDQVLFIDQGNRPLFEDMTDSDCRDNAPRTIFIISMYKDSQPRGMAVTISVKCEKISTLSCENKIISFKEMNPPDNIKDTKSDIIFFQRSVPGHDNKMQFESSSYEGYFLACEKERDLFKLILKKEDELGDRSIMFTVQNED

As usually defined, the Kd is the concentration at which binding is half-saturated. As to IL-18 (from UniProt Q14116), the Kd in assay [1] is below 0.001 µM.

“decoy-resistant IL-18 variant CS2 (consensus sequence 2), DR-18 (from UniProt P70380 37-192) (ligand)”: in assay [2], the Kd was above 10 µM.
